In article PMC9508819, “Rbp95 binds to 25S rRNA helix H95 and cooperates with the Npa1 complex during early pre-60S particle maturation”:

Key:
Rbp95 full length [1] = molecular target: T1, Rbp95 full length (Saccharomyces cerevisiae, UniProt P25617 1-290); assay: EMSA; 5 nM RNA; shift starts at 1.5-fold excess; similar to H95; EMSA: 25 mM Tris-HCl pH 7.5, 75 mM NaCl, 2.5 mM MgCl2, 3.5% glycerol, 0.025% Tween 20, 0.5 mM DTT, 5 nM Cy5-RNA, 30 min at RT; 4-20% TBE gel; details: protein: recombinant; tags: N-terminal His6; label: 5'-Cy5; hairpin
T1 sequence: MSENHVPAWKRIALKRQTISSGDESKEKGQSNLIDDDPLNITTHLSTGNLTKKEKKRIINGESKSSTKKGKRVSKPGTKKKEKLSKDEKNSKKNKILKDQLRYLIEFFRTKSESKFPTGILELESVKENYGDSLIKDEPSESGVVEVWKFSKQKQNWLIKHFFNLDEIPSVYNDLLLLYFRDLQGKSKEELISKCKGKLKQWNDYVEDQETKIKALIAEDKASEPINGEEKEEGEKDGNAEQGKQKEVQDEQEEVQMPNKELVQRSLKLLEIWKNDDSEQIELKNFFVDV

Rbp95 full length [2] = molecular target: T1, Rbp95 full length; assay: EMSA; 5 nM RNA; shift starts at 1.5-fold excess of Rbp95; EMSA: 25 mM Tris-HCl pH 7.5, 75 mM NaCl, 2.5 mM MgCl2, 3.5% glycerol, 0.025% Tween 20, 0.5 mM DTT, 5 nM Cy5-RNA, 30 min at RT; 4-20% TBE gel; details: protein: recombinant; tags: N-terminal His6; label: 5'-Cy5; hairpin
Rbp95 183-end = molecular target: T2, Rbp95 183-end (Saccharomyces cerevisiae, UniProt P25617 183-290); assay: EMSA; 100- or 500-fold excess; not sufficient for binding; EMSA: 25 mM Tris-HCl pH 7.5, 75 mM NaCl, 2.5 mM MgCl2, 3.5% glycerol, 0.025% Tween 20, 0.5 mM DTT, 5 nM Cy5-RNA, 30 min at RT; 4-20% TBE gel; details: protein: recombinant; tags: N-terminal His6; label: 5'-Cy5; hairpin
T2 sequence: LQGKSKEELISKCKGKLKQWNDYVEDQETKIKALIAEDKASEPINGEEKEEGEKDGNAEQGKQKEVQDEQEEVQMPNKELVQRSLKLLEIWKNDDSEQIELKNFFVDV

Rbp95 1-85 = molecular target: T3, Rbp95 1-85 (Saccharomyces cerevisiae, UniProt P25617 1-85); assay: EMSA; 100- or 500-fold excess; strong shift, slightly more protein needed than full length; EMSA: 25 mM Tris-HCl pH 7.5, 75 mM NaCl, 2.5 mM MgCl2, 3.5% glycerol, 0.025% Tween 20, 0.5 mM DTT, 5 nM Cy5-RNA, 30 min at RT; 4-20% TBE gel; details: protein: recombinant; tags: N-terminal His6; label: 5'-Cy5; hairpin
T3 sequence: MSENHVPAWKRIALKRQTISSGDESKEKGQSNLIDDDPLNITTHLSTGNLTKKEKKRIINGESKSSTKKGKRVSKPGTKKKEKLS

Rbp95 full length [3] = molecular target: T1, Rbp95 full length; assay: competition; 20-100-fold excess over Cy5-H95; reverts shift; EMSA: 25 mM Tris-HCl pH 7.5, 75 mM NaCl, 2.5 mM MgCl2, 3.5% glycerol, 0.025% Tween 20, 0.5 mM DTT, 5 nM Cy5-RNA, 30 min at RT; 4-20% TBE gel; details: protein: recombinant; tags: N-terminal His6; hairpin

B1: helix H45 (25S rRNA) (structured_RNA)
RNA: AAAGGGCGUCAGGGUUGAUAUGAUGCCCUGACGCCC
binding result (Rbp95 full length [1]): binds

B2: helix H95 (25S rRNA) (structured_RNA)
RNA: AAAGGGAAUUGAACUUAGUACGAGAGGAACAGUUCAUUUCCC
binding result (Rbp95 full length [2]): binds
binding result (Rbp95 183-end): no binding
binding result (Rbp95 1-85): binds

B3: helix H95 unlabeled competitor (structured_RNA)
RNA: AAAGGGAAUUGAACUUAGUACGAGAGGAACAGUUCAUUUCCC
binding result (Rbp95 full length [3]): binds
